{
  "source": "paper PMC8580143",
  "key": {"[1]": {"target": "endogenous rat PP1γ (rat (endogenous in primary hippocampal neurons)) (UniProt P63088)", "sequence (P63088 whole entry)": "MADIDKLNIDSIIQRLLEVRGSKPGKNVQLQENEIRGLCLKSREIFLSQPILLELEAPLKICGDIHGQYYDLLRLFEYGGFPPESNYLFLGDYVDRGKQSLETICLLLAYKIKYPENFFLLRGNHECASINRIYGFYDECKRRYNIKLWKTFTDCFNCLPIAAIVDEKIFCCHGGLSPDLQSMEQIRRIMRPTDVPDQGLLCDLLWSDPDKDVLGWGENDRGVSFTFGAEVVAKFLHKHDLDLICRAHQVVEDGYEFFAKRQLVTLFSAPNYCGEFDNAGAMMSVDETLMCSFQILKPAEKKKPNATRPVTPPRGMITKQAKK", "assay": "proximity ligation; PLA in fixed primary rat hippocampal neurons with Tau7 and a PP1γ-specific antibody; puncta per area of Tau12 staining; n = 3; untransduced neurons for endogenous tau", "parameters": "unit not given here"}, "[2]": {"target": "endogenous rat PP1 (detected with an antibody that recognizes all PP1 isoforms) (rat (endogenous in primary hippocampal neurons)) (UniProt P62138)", "sequence (P62138 whole entry, canonical isoform)": "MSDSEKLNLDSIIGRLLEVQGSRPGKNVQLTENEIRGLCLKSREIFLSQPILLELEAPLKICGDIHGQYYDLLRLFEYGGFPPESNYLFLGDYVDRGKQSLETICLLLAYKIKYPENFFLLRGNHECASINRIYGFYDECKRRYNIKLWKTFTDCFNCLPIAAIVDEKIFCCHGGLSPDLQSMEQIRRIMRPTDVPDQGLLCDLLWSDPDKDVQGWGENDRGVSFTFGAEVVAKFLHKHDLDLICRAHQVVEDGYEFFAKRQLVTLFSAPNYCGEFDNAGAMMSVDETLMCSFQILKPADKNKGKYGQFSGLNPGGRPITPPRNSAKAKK", "assay": "proximity ligation; PLA in fixed primary rat hippocampal neurons (DIV 8) with Tau7 and a pan-PP1 antibody; puncta per area of Tau12 (human tau) staining; n = 3; untransduced neurons for endogenous tau", "parameters": "unit not given here"}},
  "data": [
    {"substance": "R5L mutant human tau (C-terminally FLAG-tagged) expressed by lentivirus in rat hippocampal neurons (natural protein)", "values": [
      {"measurement": "PLA puncta per area of Tau12 staining", "setting": "[1]", "result": 16.2},
      {"measurement": "PLA puncta per area of Tau12 staining", "setting": "[2]", "result": 31.3}
    ]},
    {"substance": "wild-type human tau (C-terminally FLAG-tagged) expressed by lentivirus in rat hippocampal neurons (natural protein)", "values": [
      {"measurement": "PLA puncta per area of Tau12 staining", "setting": "[1]", "result": 11.3},
      {"measurement": "PLA puncta per area of Tau12 staining", "setting": "[2]", "result": 23.1}
    ]},
    {"substance": "P301L mutant human tau (C-terminally FLAG-tagged) expressed by lentivirus in rat hippocampal neurons (natural protein)", "values": [
      {"measurement": "PLA puncta per area of Tau12 staining", "setting": "[1]", "result": 28},
      {"measurement": "PLA puncta per area of Tau12 staining", "setting": "[2]", "result": 67.3}
    ]}
  ]
}
